± gives the standard error. For some assays here: Fewer inactive variants are shown than the library holds.
B1: glmS ribozyme (parent)
chain: AUAAAAGCGCCAGAACUACAGAAAUGUAGUUGACGAGGAGGAGGUUUAUCGAAUUUUCGGCGGAUGCCUCCAAA

Assays:
Settings in all cases: with glucosamine-6-phosphate
[1] = variants of: B1; assay: kcat; higher = faster cleavage; RNA array
Summary of the method: (§1)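 Sequenced MiSeq chips were the platform: E. coli RNA polymerase transcribed barcoded ribozyme variants on them in situ, and a hybridised Cy3 probe tracked these at 37 °C. After glucosamine-6-phosphate (40 μM to 10 mM) in HEPES/KCl/Mg(OAc)2 buffer was flowed in, tiles were imaged over ~14 h. Signals normalised to baseline and to non-cleaving reference variants were reduced to per-tile medians and fit to one- or two-exponential decays to obtain kobs. kcat and KM were derived through weighted Michaelis–Menten fits across concentrations.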

[2] = variants of: B1; assay: KM; higher = weaker cofactor use; RNA array
Summary of the method: as §1

[3] = variants of: B1; assay: self-cleavage kobs at 640 uM GlcN6P; higher = faster cleavage; RNA array
Summary of the method: as §1

[4] = variants of: B1; assay: self-cleavage kobs at 2500 uM GlcN6P; higher = faster cleavage; RNA array
Summary of the method: as §1

[5] = variants of: B1; assay: self-cleavage kobs at 10000 uM GlcN6P; higher = faster cleavage; RNA array
Summary of the method: as §1

[6] = variants of: B1; assay: self-cleavage kobs at 160 uM GlcN6P; higher = faster cleavage; RNA array
Summary of the method: as §1

[7] = variants of: B1; assay: self-cleavage kobs at 40 uM GlcN6P; higher = faster cleavage; RNA array
Summary of the method: as §1

Variant | kcat [1] [s⁻¹] | KM [2] [mM] | self-cleavage kobs at 640 uM GlcN6P [3] [s⁻¹] | self-cleavage kobs at 2500 uM GlcN6P [4] [s⁻¹] | self-cleavage kobs at 10000 uM GlcN6P [5] [s⁻¹] | self-cleavage kobs at 160 uM GlcN6P [6] [s⁻¹] | self-cleavage kobs at 40 uM GlcN6P [7] [s⁻¹]
U47A U57A | 0.000331 ± 5.6e-05 | 6.36 ± 1.9 | 3.47e-05 ± 9.4e-06 | 8.34e-05 ± 2e-05 | 0.000205 ± 2.7e-05 | – | –
A53G C68G | 0.000144 ± 2.6e-05 | – | 8.52e-05 ± 9.4e-06 | 0.00014 ± 1.5e-05 | – | 5.82e-05 ± 1e-05 | –
U30G C68A | 2.01e-05 ± 5.2e-06 | – | – | – | – | – | –
A15C C16A G62U | < 1e-05 | – | – | – | – | – | < 1e-05
U46G U56C | 0.00203 ± 0.0005 | 4.99 ± 2.3 | – | 0.000799 ± 0.00013 | 0.00131 ± 0.00016 | 4.23e-05 ± 2.1e-05 | –
G43U U56A | 1.76e-05 ± 3.4e-06 | – | – | – | – | – | < 1e-05
U31G C58G | 0.000125 ± 1.3e-05 | 1.1 ± 0.4 | 5.51e-05 ± 1.3e-05 | 7.65e-05 ± 1.2e-05 | 0.000119 ± 1.3e-05 | – | –
C10A G60C | < 1e-05 | – | < 1e-05 | – | – | – | –
U57C C71U | 0.000136 ± 1.9e-05 | – | 9.57e-05 ± 1.9e-05 | 8.71e-05 ± 2.6e-05 | 0.000139 ± 1.6e-05 | – | < 1e-05
G51U U65G G66C | < 1e-05 | – | < 1e-05 | – | < 1e-05 | – | –
G29A G44A | 1.73e-05 ± 3.5e-06 | – | – | – | – | – | < 1e-05
G66A | 0.0375 ± 0.011 | 2.78 ± 0.89 | 0.00697 ± 0.0004 | 0.016 ± 0.00099 | 0.0316 ± 0.0015 | 0.0016 ± 6.7e-05 | 0.00059 ± 1.2e-05
C11U C50A | < 1e-05 | – | – | – | < 1e-05 | < 1e-05 | –
A6G C11U | 2.61e-05 ± 3.3e-06 | – | – | 2.57e-05 ± 1.2e-05 | 2.38e-05 ± 7.5e-06 | < 1e-05 | < 1e-05
C11A U56G | 0.00015 ± 3.9e-05 | – | 6.35e-05 ± 1.2e-05 | 7.76e-05 ± 1.1e-05 | 0.000155 ± 1.9e-05 | – | –
A33U A39U | 5.86e-05 ± 3e-06 | 4.82 ± 0.62 | – | 2.03e-05 ± 6.2e-06 | 3.95e-05 ± 5.5e-06 | < 1e-05 | –
G40A U46C | 0.00192 ± 0.00051 | 1.28 ± 0.45 | 0.000699 ± 0.00012 | 0.00107 ± 0.00036 | 0.00192 ± 0.00054 | 0.000173 ± 3.9e-05 | 7.21e-05 ± 1.4e-05
C16G A48G | < 1e-05 | – | – | – | – | – | < 1e-05
U31G G59A C70G | 3.81e-05 ± 8.1e-06 | – | – | 3.86e-05 ± 1.5e-05 | – | – | –

Reference: the supplement of paper PMC7125110
